Reference: paper PMC9478404, “Cyclin-dependent kinase-mediated phosphorylation and the negative regulatory domain of transcription factor B-Myb modulate its DNA binding” (The Journal of Biological Chemistry, 2022)

Biological target: T1, B-Myb negative regulatory domain NRD^440–600 (human, UniProt P10244-1 440-600)
T1 construct: human B-Myb (MYBL2), negative regulatory domain, amino acids 440 to 600; source: E. coli, purified (Glutathione Sepharose, Q-sepharose, TEV cleavage, Superdex-75); not shown: GST, N-terminal, cleaved
T1 sequence (P10244 440-600): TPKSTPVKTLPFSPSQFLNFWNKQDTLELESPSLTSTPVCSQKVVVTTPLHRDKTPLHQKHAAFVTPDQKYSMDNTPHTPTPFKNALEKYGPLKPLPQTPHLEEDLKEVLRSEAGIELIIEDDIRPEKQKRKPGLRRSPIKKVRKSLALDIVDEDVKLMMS
Assay: ITC; DBD (500 μM) titrated into NRD (50 μM) at 19 °C; 150 mM NaCl, 20 mM Tris, 1 mM BME (pH 8); MicroCal VP-ITC; mean of three technical replicates
Details: both partners purified

Kd: 4.5 µM
B1: B-Myb DNA-binding domain (B-Myb^34–183) (domain or fragment)
chain: not shown
notes: Limits 34-183 are printed for 'the DBD alone' in the FP experiment; also called DBD; B-Myb DBD; source: E. coli, purified (Glutathione Sepharose, Q-sepharose, TEV cleavage, Superdex-75); not shown: GST, N-terminal, cleaved
